What all share (experiment): pull-down
For experiment [1], the target named is T1, WRC230WCA (human, UniProt Q7L576 1-1253; Q9Y2A7 1-1128; Q92558 1-230; Q92558 485-559; Q9NYB9 1-158; …).
The target in experiment [2] is T2, ΔWRC230 (human, UniProt Q7L576 1-1253; Q9Y2A7 1-1128; Q92558 1-230; Q9NYB9 1-158; Q8WUW1 1-75).
In experiment [3] the target is T1, WRC230WCA. The source holds these as a separate data set.
In experiment [4] the target is T2, ΔWRC230. This is another data set of the same source.

Read-outs that look alike come from different tables or passages of the source.

Drawing on paper doi:10.1101/2022.05.13.491857 (bioRxiv, 2022), this text covers Kd for 1 molecule.

B1: GST-Arf1 (natural protein)
chain: not shown
Usually Kd stands for the concentration at which binding is half-saturated. Regarding B1, the dissociation constant Kd was approximately 8.2 µM in experiment [1], approximately 0.66 µM in experiment [2], approximately 107 µM in experiment [3] and approximately 22.6 µM in experiment [4].
